# Assay results from paper PMC7948415.
# B1: SG7.AF (natural protein)
# chain: ARKHVQELLKTFRRIDFDETRKSVYLQSAKFGVQSQLREPLTKKVLNYWDDVKLSKTCLDRMVTKVNDVKETFYAGFSYACESHNQYSVDCLEAAKPSYLTALGEIRGETEKCLTTRLK
# Target: alternative C3 convertase, C3bBb (human) (UniProt P01024)
binder,measurement,value
B1,"IC50 of inhibition of AP-mediated hemolysis of rabbit erythrocytes, properdin-depleted serum against normal human serum",6 fold
